Laboratory results from patent US20080280824A1, “COMPOSITIONS AND METHODS FOR TREATMENT OF CANCER OR NEURODEGENERATIVE DISEASE WITH PEPTIDE BASED MICROTUBULE STABILIZERS OR INHIBITORS” (University of Washington, priority 2007, published 2008).
Entries after “also recorded” stand apart in the source; their conditions may differ.

Assays:
βH crystallin = assay: In vitro chaperone assay, thermal aggregation of βH crystallin; assay type: biochemical
alcohol dehydrogenase = assay: In vitro chaperone assay, thermal aggregation of alcohol dehydrogenase; assay type: biochemical
citrate synthase = assay: In vitro chaperone assay, thermal aggregation of citrate synthase; assay type: biochemical
Bovine brain tubulin [1] = target: T1, Bovine brain tubulin (Bos taurus, UniProt P81947+Q6B856); assay: Microtubule assembly assay (DAPI fluorescence, Microtubule Stabilization/Destabilization Assay kit); assay type: biochemical; settings: for effect on total microtubule assembly / amount of microtubules formed in 45 minutes / effect on rate of microtubule assembly: peptide or control molecule; for microtubule assembly relative to wt αB crystallin: mutant αB crystallin, FIG. 4; for effect on microtubule assembly, vs absence of αB crystallin: wt or mutant αB crystallin protein, tubulin alone normalized to 1.0
T1 construct: Bovine brain tubulin was dissolved to 200 μM; purchased Cytoskeleton; Denver, Colo; host or cells: bovine brain
T1 sequence (P81947 whole entry): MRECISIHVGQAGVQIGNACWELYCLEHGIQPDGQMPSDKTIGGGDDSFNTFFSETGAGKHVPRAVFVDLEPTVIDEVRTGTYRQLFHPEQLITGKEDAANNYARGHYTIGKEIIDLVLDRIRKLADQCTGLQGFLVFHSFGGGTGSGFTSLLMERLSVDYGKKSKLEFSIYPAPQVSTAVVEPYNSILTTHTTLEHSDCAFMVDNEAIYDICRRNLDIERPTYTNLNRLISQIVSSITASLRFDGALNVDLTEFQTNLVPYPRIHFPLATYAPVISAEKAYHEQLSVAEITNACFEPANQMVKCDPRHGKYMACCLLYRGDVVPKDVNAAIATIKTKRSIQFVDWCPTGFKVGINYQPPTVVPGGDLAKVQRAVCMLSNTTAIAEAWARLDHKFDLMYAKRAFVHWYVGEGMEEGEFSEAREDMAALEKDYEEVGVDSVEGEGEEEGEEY
T1 sequence (Q6B856 whole entry): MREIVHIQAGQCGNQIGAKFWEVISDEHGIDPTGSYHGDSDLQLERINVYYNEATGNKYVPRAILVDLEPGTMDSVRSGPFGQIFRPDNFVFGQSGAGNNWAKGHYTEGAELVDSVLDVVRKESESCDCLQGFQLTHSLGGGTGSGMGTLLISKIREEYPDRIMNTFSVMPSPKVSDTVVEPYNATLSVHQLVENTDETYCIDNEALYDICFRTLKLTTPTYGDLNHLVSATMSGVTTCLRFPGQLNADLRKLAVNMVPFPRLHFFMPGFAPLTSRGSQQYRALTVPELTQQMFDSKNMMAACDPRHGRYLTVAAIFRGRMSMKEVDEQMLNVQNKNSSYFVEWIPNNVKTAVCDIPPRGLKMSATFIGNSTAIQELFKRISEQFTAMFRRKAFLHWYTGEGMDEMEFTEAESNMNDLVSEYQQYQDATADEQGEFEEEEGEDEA
Procedure: Microtubule assembly assays. The effect of selected αB crystallin peptides on the in vitro assembly of tubulin into microtubules was evaluated using the Microtubule Stabilization/Destabilization Assay kit (Cytoskeleton; Denver, Colo.) as described previously. Bonne et al., J Biol Chem 260:2819-25, 1985. Bovine brain tubulin was dissolved to 200 μM in 80 mM PIPES, 2 mM MgCl2, 0.5 mM EGTA, 10 μM DAPI, 1 mM GTP pH 6.9. 8.5 μl of the tubulin was mixed with 40 μl of 80 mM PIPES, 2 mM MgCl2, 0.5 mM EGTA, 7.4 μM DAPI, 16% Glycerol, 1.1 mM GTP pH 6.9 and 4.3 μl of 2 mM peptide in 2.5% DMSO, 2 mM Paclitaxel (polymerization promoter) in 100% DMSO, 15 mM CaCl2 (polymerization inhibitor) in water, or 2.5% DMSO only. Microtubule assembly was monitored by measuring the fluorescence of DAPI, a molecule whose emission fluorescence at λ=460 is enhanced 8-fold when it is incorporated into assembled microtubules. Bonne et al., J Biol Chem 260:2819-25, 1985. Fluorescence of samples were continuously read on a Perkin Elmer Victor^3 V fluorescence plate reader (Excitation λ=355 nm, Emission λ=460 nm) at 37° C. for 45 minutes.
The effect of wt and three mutant αB crystallins, Δ41-58, αAβ8, and Δ155-165 on the in vitro assembly of tubulin into microtubules was evaluated using the Microtubule Stabilization/Destabilization Assay kit described above (Cytoskeleton; Denver, Colo.). Bovine brain tubulin was dissolved to 200 μM in 80 mM PIPES, 2 mM MgCl2, 0.5 mM EGTA, 10 μM DAPI, 1 mM GTP pH 6.9. 8.5 μl of the tubulin was mixed with 40 μl of 80 mM PIPES, 2 mM MgCl2, 0.5 mM EGTA, 7.4 μM DAPI, 16% Glycerol, 1.1 mM GTP pH 6.9 and 4.3 μl of 80 μM protein in 20 mM Tris-Cl, pH8.0 or Tris-Cl buffer only. Fluorescence of samples were continuously read on a Perkin Elmer Victor^3 V fluorescence plate reader (Excitation λ=355 nm, Emission λ=460 nm) at 37° C. for 45 minutes.

pre-formed microtubules = assay: Microtubule disassembly assay (DAPI fluorescence); assay type: biochemical, Bovine; settings: for microtubule disassembly relative to wt αB crystallin: mutant αB crystallin, FIG. 4; for effect on microtubule disassembly (words), vs absence of αB crystallin: wt or mutant αB crystallin (6.8 μM and 34 μM), 34 μM microtubules
Procedure: Microtubule disassembly assays. The effect of αB crystallin peptides and mutants on the in vitro disassembly of microtubules into soluble tubulin was evaluated using the Microtubule Stabilization/Destabilization Assay kit described above (Cytoskeleton; Denver, Colo.) as described previously^36. 34 μM pre-formed microtubules were incubated with the αB crystallin peptides (170 μM) or wt and mutant αB crystallins (6.8 μM and 34 μM) at 23° C. for 20 minutes. Incubation of microtubules at 23° C. results in the spontaneous disassembly of microtubules. The decrease in DAPI fluorescence at λ=460 nm was measured continuously for 20 minutes by exciting the samples at λ=355 nm using a Perkin Elmer Victor^3 V fluorescence plate reader.

Bovine brain tubulin [2] = assay: Tubulin thermal aggregation assay (absorbance at 340 nm); assay type: biochemical; settings: for effect on thermal aggregation of tubulin: synthetic peptide, 34 μM tubulin; for effect on thermal aggregation of tubulin / effect on tubulin aggregation, vs absence of αB crystallin: 52° C., 60 minutes; for tubulin aggregation relative to wt αB crystallin: mutant αB crystallin, FIG. 4; for effect on tubulin aggregation, vs absence of αB crystallin: wt or mutant αB crystallin protein
Procedure: Tubulin aggregation assays. The effect of αB crystallin peptides and mutants on the thermal aggregation of tubulin was evaluated using ultra-violet spectroscopy. Bovine brain tubulin was dissolved to 200 μM in 80 mM PIPES, 2 mM MgCl2, 0.5 mM EGTA, pH 6.9. 4.25 μl of 0.08, 0.4, or 2 mM test peptide or protein was diluted into 40 μl of 80 mM PIPES, 2 mM MgCl2, 0.5 mM EGTA, pH 6.9. 8.5 μl of the 200 μM tubulin was added to each sample. Samples were heated at 52° C. and the absorbance at λ=340 nm was measured continuously for 60 minutes using a Pharmacia Biotech Ultrospec 3000. GTP and glycerol were not present in the samples because they induce the assembly of microtubules.

[3] = 34 μM tubulin, 37° C., 45 minutes, vs tubulin alone
[4] = 34 μM tubulin, 37° C., vs tubulin alone
[5] = peptide 170 μM, 34 μM pre-formed microtubules, 23° C., 20 minutes

| Molecule | effect on thermal aggregation of βH crystallin (βH crystallin) | effect on thermal aggregation of alcohol dehydrogenase (alcohol dehydrogenase) | effect on thermal aggregation of citrate synthase (citrate synthase) | effect on total microtubule assembly / amount of microtubules formed in 45 minutes (Bovine brain tubulin [1]; [3]) | effect on rate of microtubule assembly (Bovine brain tubulin [1]; [4]) | effect on microtubule disassembly (pre-formed microtubules; [5]) | effect on thermal aggregation of tubulin (Bovine brain tubulin [2]) | microtubule assembly relative to wt αB crystallin (Bovine brain tubulin [1]) | effect on microtubule assembly, vs absence of αB crystallin (Bovine brain tubulin [1]) | microtubule disassembly relative to wt αB crystallin (pre-formed microtubules) | effect on microtubule disassembly (words), vs absence of αB crystallin (pre-formed microtubules; 23° C., 20 minutes) | tubulin aggregation relative to wt αB crystallin (Bovine brain tubulin [2]) | effect on tubulin aggregation, vs absence of αB crystallin (Bovine brain tubulin [2]) | other results |
| --- | --- | --- | --- | --- | --- | --- | --- | --- | --- | --- | --- | --- | --- | --- |
| LTITSSLSDGV | inhibited | inhibited | inhibited |  |  |  |  |  |  |  |  |  |  |  |
| RTIPITRE | inhibited | inhibited | inhibited |  |  |  |  |  |  |  |  |  |  |  |
| DRFSVNLDVKHFS |  |  |  | no effect; also recorded: without an effect | accelerated microtubule assembly; also recorded: increased | no effect | no effect |  |  |  |  |  |  | effect on total microtubule assembly / amount of microtubules formed in 45 minutes (Bovine brain tubulin [1]; 34 μM tubulin, 37° C., 45 minutes, vs tubulin alone, listed as 73DRFSVNLDVKHFS85): no effect; also recorded: little or no effect; effect on microtubule disassembly (pre-formed microtubules; peptide 170 μM, 34 μM pre-formed microtubules, 23° C., 20 minutes, listed as 73DRFSVNLDVKHFS85): little or no effect |
| FISREFHR |  |  |  | decreased the amount of microtubules formed; also recorded: inhibited | slowed microtubule assembly | decreased | decreased |  |  |  |  |  |  | effect on total microtubule assembly / amount of microtubules formed in 45 minutes (Bovine brain tubulin [1]; 34 μM tubulin, 37° C., 45 minutes, vs tubulin alone, listed as 113FISREFHR120): inhibited microtubule assembly; decrease of microtubule assembly (Bovine brain tubulin [1]; synthetic peptide (4.3 μl of 2 mM), 34 μM tubulin, 37° C., 45 minutes, vs tubulin alone): approximately 45%; inhibition of microtubule disassembly (pre-formed microtubules; [5]): ~24%; effect on microtubule disassembly (pre-formed microtubules; peptide 170 μM, 34 μM pre-formed microtubules, 23° C., 20 minutes, listed as 113FISREFHR120): inhibited; effect on thermal aggregation of tubulin (Bovine brain tubulin [2]; listed as 113FISREFHR120): protected |
| R120G: single point mutant of human αB crystallin, Arg-120 replaced with glycine (protein) MDIAIHHPWIRRPFFPFHSPSRLFDQFFGEHLLESDLFPTSTSLSPFYLRPPSFLRAPSWFDTGLSEMRLEKDRFSVNLDVKHFSPEELKVKVLGDVIEVHGKHEERQDEHGFISREFHGKYRIPADVDPLTITSSLSSDGVLTVNGPRKQVSGPERTIPITREEKPAVTAAPKK |  |  |  |  |  |  |  | lower | unchanged | similar | unchanged | similar | decreased |  |
| αAβ8: human αB crystallin mutant, β8 sequence 131LTITSSLS138 replaced with homologous β8 sequence of human αA crystallin (protein) MDIAIHHPWIRRPFFPFHSPSRLFDQFFGEHLLESDLFPTSTSLSPFYLRPPSFLRAPSWFDTGLSEMRLEKDRFSVNLDVKHFSPEELKVKVLGDVIEVHGKHEERQDEHGFISREFHRKYRIPADVDPSALSCSLSSDGVLTVNGPRKQVSGPERTIPITREEKPAVTAAPKK |  |  |  |  |  |  |  | increased | increased | decreased | completely inhibited | unchanged | decreased |  |
